Experimental data taken from the supplement of paper PMC9112550, “Optimization of the antimicrobial peptide Bac7 by deep mutational scanning” (BMC Biology, 2022).

test system: Escherichia coli TOP10; assay: shrunken log2 fold change of peptide-encoding DNA abundance (4.5 h post-induction vs induction); higher = less antimicrobial activity (less host growth inhibition); details: time post-induction: 4.5 h; library: site-saturation at positions 5, 18, 19, 20
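Note: peptides expressed intracellularly from a pBAD plasmid library in pooled LB shake-flask culture, induced with 0.3% L-arabinose, DNA abundance read by NGS, three biological replicates, DESeq2 with apeglm shrinkage.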

Compared with RRIRFRPPRLPRPRPRPRKSPRP, RRIRFRPPRLPRPRPRPWFWPRP is lower in “shrunken log2 fold change” value: 0.123 for the first, -0.285 for the second.

Compared with RRIRVRPPRLPRPRPRPGGVPRP, RRIRTRPPRLPRPRPRPIMLPRP is lower in “shrunken log2 fold change” value: 0.224 for the first, -0.32 for the second.

Compared with RRIRRRPPRLPRPRPRPVSMPRP, RRIRYRPPRLPRPRPRPYGCPRP is lower in “shrunken log2 fold change” value: 0.22 for the first, -0.143 for the second.

First: RRIRSRPPRLPRPRPRPWQIPRP
Second: RRIRGRPPRLPRPRPRPIKNPRP
The “shrunken log2 fold change” value of the first is lower: 0.0843 for the first, 0.488 for the second.

Compared with RRIRPRPPRLPRPRPRPSPFPRP, RRIRYRPPRLPRPRPRPCIMPRP is lower in “shrunken log2 fold change” value: -0.0752 for the first, -3.3 for the second.

RRIRPRPPRLPRPRPRPDRWPRP and RRIRDRPPRLPRPRPRPLIQPRP are within 0.2 log units of each other in “shrunken log2 fold change” value: 0.219 for the first, 0.365 for the second.

RRIRHRPPRLPRPRPRPESRPRP and RRIRRRPPRLPRPRPRPVRIPRP are within 0.2 log units of each other in “shrunken log2 fold change” value: -0.17 for the first, -0.00526 for the second.

RRIRVRPPRLPRPRPRPHWTPRP and RRIRFRPPRLPRPRPRPQLAPRP are within 0.2 log units of each other in “shrunken log2 fold change” value: -0.045 for the first, 0.0569 for the second.

RRIRHRPPRLPRPRPRPGKVPRP and RRIRKRPPRLPRPRPRPVMMPRP are within 0.2 log units of each other in “shrunken log2 fold change” value: -0.0067 for the first, 0.155 for the second.

Going from RRIRCRPPRLPRPRPRPGANPRP to RRIRTRPPRLPRPRPRPPPHPRP, the “shrunken log2 fold change” value rises from 0.385 to 0.907.

RRIRERPPRLPRPRPRPCIDPRP and RRIRNRPPRLPRPRPRPFFSPRP are within 0.2 log units of each other in “shrunken log2 fold change” value: -0.00146 for the first, -0.14 for the second.

Compared with RRIRCRPPRLPRPRPRPECRPRP, RRIRWRPPRLPRPRPRPFAPPRP is higher in “shrunken log2 fold change” value: 0.0543 for the first, 0.505 for the second.

First: RRIRHRPPRLPRPRPRPLNTPRP
Second: RRIRQRPPRLPRPRPRPHPWPRP
The “shrunken log2 fold change” value of the first is lower: -0.351 for the first, 0.0242 for the second.

RRIRFRPPRLPRPRPRPCIYPRP and RRIRERPPRLPRPRPRPNIWPRP are within 0.2 log units of each other in “shrunken log2 fold change” value: -0.191 for the first, -0.0737 for the second.

First: RRIRPRPPRLPRPRPRPKYFPRP
Second: RRIRIRPPRLPRPRPRPMKTPRP
The “shrunken log2 fold change” value of the first is lower: -0.693 for the first, -0.057 for the second.

Compared with RRIRPRPPRLPRPRPRPYQGPRP, RRIRARPPRLPRPRPRPFEAPRP is higher in “shrunken log2 fold change” value: -0.0345 for the first, 0.564 for the second.

Going from RRIRIRPPRLPRPRPRPQMPPRP to RRIRWRPPRLPRPRPRPKWGPRP, the “shrunken log2 fold change” value rises from -0.662 to 0.463.

RRIRPRPPRLPRPRPRPNRIPRP and RRIRNRPPRLPRPRPRPCGDPRP are within 0.2 log units of each other in “shrunken log2 fold change” value: -0.132 for the first, 0.0293 for the second.

First: RRIRARPPRLPRPRPRPVFPPRP
Second: RRIRHRPPRLPRPRPRPIISPRP
The “shrunken log2 fold change” value of the first is higher: 0.207 for the first, -0.247 for the second.

Compared with RRIRMRPPRLPRPRPRPEHRPRP, RRIRFRPPRLPRPRPRPTKFPRP is lower in “shrunken log2 fold change” value: 0.0887 for the first, -0.355 for the second.

RRIRDRPPRLPRPRPRPQMKPRP and RRIRCRPPRLPRPRPRPKVSPRP are within 0.2 log units of each other in “shrunken log2 fold change” value: -0.166 for the first, 0.0213 for the second.

RRIRYRPPRLPRPRPRPVVDPRP and RRIRRRPPRLPRPRPRPLICPRP are within 0.2 log units of each other in “shrunken log2 fold change” value: -0.0233 for the first, 0.119 for the second.

RRIRYRPPRLPRPRPRPYTMPRP and RRIRPRPPRLPRPRPRPWCFPRP are within 0.2 log units of each other in “shrunken log2 fold change” value: -0.301 for the first, -0.295 for the second.

First: RRIRVRPPRLPRPRPRPFSEPRP
Second: RRIRLRPPRLPRPRPRPVFEPRP
The “shrunken log2 fold change” value of the first is lower: -0.237 for the first, 0.239 for the second.

RRIRWRPPRLPRPRPRPIIYPRP and RRIRNRPPRLPRPRPRPHMMPRP are within 0.2 log units of each other in “shrunken log2 fold change” value: -0.327 for the first, -0.326 for the second.

RRIRRRPPRLPRPRPRPACTPRP and RRIRHRPPRLPRPRPRPCDQPRP are within 0.2 log units of each other in “shrunken log2 fold change” value: 0.181 for the first, -0.000946 for the second.

RRIRLRPPRLPRPRPRPAEIPRP and RRIRYRPPRLPRPRPRPDNMPRP are within 0.2 log units of each other in “shrunken log2 fold change” value: -0.219 for the first, -0.0223 for the second.

Compared with RRIRWRPPRLPRPRPRPQAMPRP, RRIRYRPPRLPRPRPRPPLMPRP is lower in “shrunken log2 fold change” value: 0.179 for the first, -0.293 for the second.

First: RRIRNRPPRLPRPRPRPKTHPRP
Second: RRIRLRPPRLPRPRPRPSQPPRP
The “shrunken log2 fold change” value of the first is lower: -0.298 for the first, -0.0367 for the second.

Going from RRIRVRPPRLPRPRPRPHSRPRP to RRIRGRPPRLPRPRPRPEMLPRP, the “shrunken log2 fold change” value rises from 0.0978 to 1.71.

Compared with RRIRVRPPRLPRPRPRPLPKPRP, RRIRGRPPRLPRPRPRPAYGPRP is lower in “shrunken log2 fold change” value: 0.361 for the first, -0.0354 for the second.

RRIRCRPPRLPRPRPRPPNQPRP and RRIRNRPPRLPRPRPRPIDSPRP are within 0.2 log units of each other in “shrunken log2 fold change” value: 0.107 for the first, -0.0173 for the second.

Going from RRIRGRPPRLPRPRPRPPNGPRP to RRIRLRPPRLPRPRPRPCITPRP, the “shrunken log2 fold change” value falls from 0.534 to -0.275.

RRIRWRPPRLPRPRPRPWKDPRP and RRIRQRPPRLPRPRPRPSECPRP are within 0.2 log units of each other in “shrunken log2 fold change” value: -0.000687 for the first, -0.0674 for the second.

Going from RRIRERPPRLPRPRPRPTLQPRP to RRIRMRPPRLPRPRPRPRLRPRP, the “shrunken log2 fold change” value rises from 0.125 to 1.17.

RRIRQRPPRLPRPRPRPIILPRP and RRIRLRPPRLPRPRPRPSCSPRP are within 0.2 log units of each other in “shrunken log2 fold change” value: -0.516 for the first, -0.527 for the second.

Compared with RRIRSRPPRLPRPRPRPCWTPRP, RRIRRRPPRLPRPRPRPQPLPRP is higher in “shrunken log2 fold change” value: -0.306 for the first, 0.509 for the second.

With RRIRGRPPRLPRPRPRPHANPRP the “shrunken log2 fold change” value was 0.361.
